This note sets out measurements from patent US20260256913A1 (UTC TYHERAPEUTICS SHANGNAI, published 2026).

Experiment [1] addresses CD40-Fc recombinant protein (human) (UniProt P25942). As to the kind of experiment: flow cytometry, CD40-Fc staining of transduced T cells at day 13; control CAR without LACO. In general terms: In flow cytometry, cells or beads pass a laser one at a time.
For experiment [2], the target named is T1, CD40-Fc recombinant protein (human, UniProt P25942 21-193).
T1 construct: also called CD40-Fc protein; CD40-Fc antigen; not shown: Fc part; detected with anti-human IgG Fc antibody
As to the kind of experiment: flow cytometry, CD40-Fc staining of transduced T cells at day 13. The source says: Lentivirus-based CART cells were generated using the following procedures: T cells were isolated from PBMC and activated by anti-CD3/CD28 beads (T cell:beads=1:3). […] At day 13, the CAR expression was detected using anti-CD27 antibody, and the expression of LACO was detected using CD40-Fc (FIG. 42A-42B and Table 10). Generally, the transduction efficiency was between 30% to 50%.

B1: CD27-CAR (CD27z) (protein)
chain: ATPAPKSCPERHYWAQGKLCCQMCEPGTFLVKDCDQHRKAAQCDPCIPGVSFSPDHHTRPHCESCRHCNSGLLVRNCTITANAECACRNGWQCRDKECTECDPLPNPSLTARSSQALSPHPQPTHLPYVSEMLEARTAGHMQTLADFRQLPARTLSTHWPPQRSLCSSDFIRILVIFSGMFLVFTLAGALFLHQRRKYRSNKGESPVEPAEPCRYSCPREEEGSTIPIQEDYRKPEPACSPRVKFSRSADAPAYQQGQNQLYNELNLGRREEYDVLDKRRGRDPEMGGKPRRKNPQEGLYNELQKDKMAEAYSEIGMKGERRRGKGHDGLYQGLSTATKDTYDALHMQALPPR
Regarding B1, in experiment [1], the LACO % (cells positive in CD40-Fc staining) was determined as 2.9% and the LACO/MFI (CD40-Fc staining) stood at 44.3 MFI.

B2: LACO A409-9.3h11 (of CD27z-9-9.3) (bispecific antibody)
chain: QAVLTQPPSASGAPGQRVSISCSGGSSNIGSHTVNWYQQLPGAAPRLLMFSNYQRPSGVPDRFSASKSGTSASLAISGLRSEDEADYYCAAWDGTLKGYVFGTGTKVTVLGGGGSGGGGSGGGGSEVQLVESGGGVVLPGRSLRLSCAASGFTLRSYGMHWVRQATGKGLEWVSAIGTAGDTYYPGSVKGRFTISRENAKNSLYLQMNSLRAGDTAVYYCARADRLGGYGMDVWGQGTTVTVSSGGGGSQVKLQESGPGLVKPSETLSITCTVSGFSLSDYGVHWVRQSPGKGLEWLGVIWAGGGTNYNSALMSRKTISKDNSKSQVFLKMSSLTAADTAVYYCARDKGYSYYYSMDYWGQGTTVTVSSGGGGSGGGGSGGGGSDIQLTQSPSSLSVSVGDRVTISCRASESVEYYVTSLMQWYQQKPGQAPKLLIFAASNVESGVPSRFSGSGSGTNFTLTISSVQEEDFAMYFCQQSRKVPYTFGGGTKLEIK
notes: Anti-CD40 scFv 409 joined to anti-CD28 scFv 9.3h11, co-expressed with CD27z through T2A
Regarding B2, in experiment [2], the “LACO % (cells positive in CD40-Fc staining)” value is 27.3% and the “LACO/MFI (CD40-Fc staining)” value stood at 127 MFI.

B3: LACO A4025-9.3h11 (of CD27z-25-9.3) (bispecific antibody)
chain: QSALTQPASVSGSPGQSITVSCTGTRSDIGDYNYVSWYQQHPGKAPKLIIYDVSSRPSGVSNRYSGSKSGNTASLTISGLQAEDEADYYCSSYTSSSTLVFGGGTKVTVLGGGGSGGGGSGGGGSQVQLVQSGGGLVQPGGSLRLSCAASGFTFSSNWMSWVRQAPGKGLEWVANINQDGSEKYYVDSVKGRFTISRDNAKNSLYLQLNSLRAEDTAEYYCARGGYRYAYWGQGTLVTVSSGGGGSQVKLQESGPGLVKPSETLSITCTVSGFSLSDYGVHWVRQSPGKGLEWLGVIWAGGGTNYNSALMSRKTISKDNSKSQVFLKMSSLTAADTAVYYCARDKGYSYYYSMDYWGQGTTVTVSSGGGGSGGGGSGGGGSDIQLTQSPSSLSVSVGDRVTISCRASESVEYYVTSLMQWYQQKPGQAPKLLIFAASNVESGVPSRFSGSGSGTNFTLTISSVQEEDFAMYFCQQSRKVPYTFGGGTKLEIK
notes: Anti-CD40 scFv 4025 joined to anti-CD28 scFv 9.3h11, co-expressed with CD27z through T2A
For the molecule B3, in experiment [2], the “LACO % (cells positive in CD40-Fc staining)” value came to 51.4% and the “LACO/MFI (CD40-Fc staining)” value is 221 MFI.
